For experiment [1], the target named is KLK1-99Lm (KLK1 with nine residues of its 99 loop deleted) (human) (UniProt P06870). In words: kinetics of protease inhibition (discontinuous assay); pseudo-first-order; 10 nM protease with 100-500 nM kallistatin variant, PBS, 0.1% PEG 8000, 22 ± 1 °C; apparent second-order rate constant kapp from kobs; k2 = kapp × SI.
For experiment [2], the target named is KLK1-70Lm (KLK1 with D75, D76 and E77 replaced by arginines) (human). Described as above.
The target is the same in experiment [3]. In words: kinetics of protease inhibition (discontinuous assay); 1 µM rKAL preincubated 5 min with LMWH (0-2.5 mg/mL) at room temperature, then 10 nM KLK1-70Lm; kobs plotted against LMWH.

B1: Recombinant human kallistatin (rKAL), wild type (natural protein)
chain: GSPSLKIAPANADFAFRFYYLIASETPGKNIFFSPLSISAAYAMLSLGACSHSRSQILEGLGFNLTELSESDVHRGFQHLLHTLNLPGHGLETRVGSALFLSHNLKFLAKFLNDTMAVYEAKLFHTNFYDTVGTIQLINDHVKKETRGKIVDLVSELKKDVLMVLVNYIYFKALWEKPFISSRTTPKDFYVDENTTVRVPMMLQDQEHHWYLHDRYLPCSVLRMDYKGDATVFFILPNQGKMREIEEVLTPEMLMRWNNLLRKRNFYKKLELHLPKFSISGSYVLDQILPRLGFTDLFSKWADLSGITKQQKLEASKSFHKATLDVDEAGTEAAAATSFAIKFFSAQTNRHILRFNRPFLVVIFSTSTQSVLFLGKVVDPTKP
For B1, the second-order association rate constant in experiment [1] is 200 M⁻¹ s⁻¹. For the same molecule, the k2 (second-order rate constant) in experiment [2] was 1800 M⁻¹ s⁻¹. In experiment [3], this molecule showed a fold acceleration of the inhibition rate with LMWH against no heparin of 5 fold.

The record behind these values is PMC7356578.
